Source: the supplement of paper PMC10567573
± gives the standard deviation.

Test: protein stability index of a GFP-peptide fusion (GPS, HEK-293T) (PSI 1-6); higher = more stable
Conditions: c terminus: a fixed tail appended
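Note: 24-mer peptide tiles fused after GFP, lentivirally expressed, FACS-sorted into six equal bins by GFP/DsRed ratio, decoded by Illumina sequencing, PSI is the read-weighted mean bin number.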

Row | Sequence | protein stability index (treatment: DMSO) | protein stability index (treatment: MLN4924 1 uM, 8 h)
1 | LIKNFHQYSVEGGKETLTPSELRD [S100A14] | 4.15 ± 0.2 | 4.3 ± 0.26
2 | ELIRNIQELLKRTIMQAVSQIRLN [TEKT4] | 3 ± 0.46 | 2.77 ± 0.53
3 | LVVLVVAVVASSVNSYYSSPAQQV [TOR1AIP2] | 3.22 ± 0.11 | 3.21 ± 0.23
4 | EEEEAAMYEEEMEREEITTKKRKL [FAM50A] | 5.66 ± 0.32 | 5.38 ± 0.34
5 | LPCQHNLCRKCANDIFQAANPYWT [TRIM63] | 2.38 ± 0.18 | 2.29 ± 0.14
6 | PPPSRPSVAVPPPPPNRMYPPPPP [WASL] | 4.48 ± 0.2 | 4.49 ± 0.2
7 | HSPSCLARVTGELTMTFPAGIVRV [FCHO1] | 2.53 ± 0.44 | 2.67 ± 0.76
8 | LGSTKLSDKDKAVGIFNTVINPML [OR3A1] | 3 ± 0.46 | 3.19 ± 0.28
9 | VSDDLSSEEDGEARTQMILLRRSV [PHTF1] | 4.8 ± 0.17 | 5.08 ± 0.15
10 | GNRILDEKEQEKMRQDLEEERVAL [PKD2L1] | 5.24 ± 0.74 | 5.57 ± 0.27
11 | RVLHDFGLDGYRGYSLADWVCLAY [SPACA3] | 2.2 ± 0.34 | 2.21 ± 0.18
12 | EIVSIWILSFILAIPEAIGFVMVP [EDNRA] | 2.86 ± 0.18 | 3.03 ± 0.17
13 | SAPQQNGQPLRPLVPDASKQRLME [PDLIM7] | 4.73 ± 0.34 | 4.89 ± 0.33
14 | HGLQEGKDLFTQRQNSAPARMLSS [CDC25A] | 4.4 ± 0.18 | 4.46 ± 0.15
15 | GRECQPRWETSSWSECSRTCGEGY [ADAMTSL2] | 3.78 ± 0.15 | 3.49 ± 0.092
16 | YPEEADGTLDCISMALTCTFNRWG [RBBP5] | 2.19 ± 0.23 | 2.11 ± 0.28
17 | EQILELLVLEQFLTILPTEIETWV [ZNF449] | 3.15 ± 0.38 | 2.73 ± 0.52
18 | SEADASHCIQQILESVNHCHLNGI [CAMK2D] | 2.98 ± 0.27 | 2.89 ± 0.33
19 | QETLTNISAVNYDFDEEYFSNTSE [DAPK3] | 5.41 ± 0.26 | 5.41 ± 0.21
20 | NFVRERTLDKRWRVRKEAMMGLAQ [PDS5B] | 2.8 ± 0.24 | 2.83 ± 0.39
21 | RQQGNPGHRSIYLALKLPDGSYAL [ADAMTS4] | 2.04 ± 0.23 | 2.2 ± 0.33

Row | Sequence | protein stability index (treatment: DMSO) | protein stability index (treatment: MLN4924 1 uM, 8 h)
22 | LDGQLDFEEFVHYLQDHEKKLRLV [SLC25A25] | 3.3 ± 0.68 | 2.98 ± 0.33
23 | VRDMMANFHLNDLEAPHEDDAEGE [TCF25] | 5.48 ± 0.13 | 5.3 ± 0.31
24 | RSVSDQFYRYKMPRLIAKVEGKGN [EIF5] | 3.47 ± 0.19 | 3.46 ± 0.21
25 | EMSLPEVQKDKYPEEFSLLKLQTK [SPATS1] | 4.29 ± 0.28 | 4.04 ± 0.34
26 | NYECNLYTFLYLVCISTKTQCSEE [FEM1B] | 3.11 ± 0.38 | 2.81 ± 0.4
27 | LEECLRLLEATCPFGENAEFPADI [NFE2L1] | 3.61 ± 0.68 | 3.61 ± 0.23
28 | PDFPSINMDPAGLDDEDDTSIGMP [RETREG3] | 5.49 ± 0.18 | 5.53 ± 0.11
29 | ATQTERRLDLAAVTLRRGLRSRAS [FAM189A2] | 4.02 ± 0.24 | 4.41 ± 0.2
30 | IDDLEDDPVVNGERSGCALTDAVA [TCF25] | 5.3 ± 0.19 | 5.37 ± 0.11
31 | SFVLSSLQLGEGVEFDVLPAFDAL [OAS1] | 2.45 ± 0.59 | 2.26 ± 0.53
32 | RWDLSPEQIKTRTEELIVQTKQVY [NLN] | 3.44 ± 0.32 | 3.8 ± 0.088
33 | VDIKPANMEELTEVITAAEFHPHH [PPP2R2B] | 4.47 ± 0.34 | 4.42 ± 0.58
34 | RLQSSFWIVDKQHVYIGSAGLDWQ [PLD5] | 2.69 ± 0.46 | 2.26 ± 0.38
35 | LKKGSKEKQADFLDKQMSRDEHRA [NFE2L1] | 5 ± 0.39 | 5.08 ± 0.32
36 | IRQLQEQHYQQYMQQLYQVQLAQQ [ACBD3] | 2.23 ± 0.29 | 2.43 ± 0.24
37 | WGVFYYFVSALGITAGAHRLWSHR [SCD] | 3.38 ± 0.79 | 2.63 ± 0.62
38 | MSGDGATEQAAEYVPEKVKKAEKK [CSTF3] | 5.52 ± 0.18 | 5.65 ± 0.15
39 | SSSYEQFNGELPNGRHKIPESQFP [SRPK2] | 4.1 ± 0.24 | 4.21 ± 0.22
40 | LGSYKAQKTSRSSSIPCSGSLDGR [PPEF2] | 4.177 ± 0.013 | 4.43 ± 0.14
41 | SRPTGQQLESLGLLAPGEQSLPCT [KISS1] | 4.29 ± 0.16 | 4.38 ± 0.25
42 | PADPTGNLGGGDPKGWRQLAQEAE [OAS1] | 5.17 ± 0.19 | 4.97 ± 0.18

Row | Sequence | protein stability index (treatment: DMSO) | protein stability index (treatment: MLN4924 1 uM, 8 h)
43 | SAFSSRGSLSLSFEREPSTSDLGT [RIPK4] | 4.01 ± 0.14 | 4.13 ± 0.14
44 | RNLDGTLGYLLDKETLRLHPDIFL [ZER1] | 2.13 ± 0.27 | 2.05 ± 0.17
45 | FKPVVAAQKISKGADPKSVVCAFF [ZC3H15] | 2.32 ± 1 | 2.81 ± 1.5
46 | KEQRKQMKGRGQLEKPPAPNQAMV [TBC1D10A] | 4.95 ± 0.1 | 5.01 ± 0.34
47 | LIQQFLTLRPDQQLHIFNTLRSHL [CDS2] | 2.37 ± 0.16 | 2.34 ± 0.27
48 | QVERMREVNSRCYQPEPFACGIEH [FBXO34] | 2.53 ± 0.3 | 2.43 ± 0.34
49 | LPSVFGSLRDSGYFYDPIERDIEI [RSPH3] | 2.31 ± 0.37 | 2.64 ± 0.61
50 | SHRFPEDHDPTIEDAYKIRIRIDD [RIT1] | 3.98 ± 0.19 | 4.28 ± 0.31
51 | SVINNGHNQKVHMHMVDLMSSIIC [PDS5B] | 2.02 ± 0.27 | 2.53 ± 0.3
52 | AAPPPLKDDPEGDRDGCVITKVLL [ZBED3] | 3.62 ± 0.27 | 3.62 ± 0.27
53 | SSPNLQVSSDGTLKYMEVTLRPTD [PCDHGC5] | 3.84 ± 0.092 | 4.12 ± 0.33
54 | GAFQAQEKELVFDIDMTDYDDVRR [PRIM1] | 4.72 ± 0.4 | 4.71 ± 0.14
55 | DETIGFEDILNDPSQSEVMGEPHL [POMP] | 5.5 ± 0.15 | 5.46 ± 0.086
56 | ITESYQTLHPISSEELLSLKYEND [ETS1] | 4.81 ± 0.095 | 4.85 ± 0.22
57 | GPAASEGAEQPPDLHCVLVTNPHS [GADD45A] | 4.97 ± 0.14 | 4.95 ± 0.1
58 | PTDYQVNIQIIEYEKKQTLGQNDT [BTBD1] | 3.76 ± 0.27 | 3.91 ± 0.13
59 | QALRRLRPRTRKVKSVSPQGNSVD [NCF4] | 4.32 ± 0.46 | 4.63 ± 0.26
60 | VKKLMRTSTPPPASVINNMLAEIF [ZBED1] | 2.2 ± 0.37 | 2.02 ± 0.21
61 | NGTAWTYHSQDELGGFSHWGRLTS [PKD2L1] | 2.38 ± 0.4 | 2.6 ± 0.2
